Measured values from article PMC1802081 (BMC Structural Biology, 2007).
Changes are numbered by the printed parent chain.

T1: activin A (Sf9 cells) (UniProt P08476 311-426, biotin (biotinylated for the biosensor; site not stated))
T1 construct: activin A (dimer of inhibin beta A chains), mature ligand; also called Act-A; source: Sf9 cells [59]
T1 sequence (looked up): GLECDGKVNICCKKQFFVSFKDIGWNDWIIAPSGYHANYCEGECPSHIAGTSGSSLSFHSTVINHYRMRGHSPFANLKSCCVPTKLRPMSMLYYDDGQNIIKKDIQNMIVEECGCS

B1: ActR-IIB receptor ectodomain (ActR-IIBECD) (receptor, UniProt P27040 19-137, looked up)
chain: SGRGEAETRECIYYNANWELERTNQSGLERCEGEQDKRLHCYASWRNSSGTIELVKKGCWLDDFNCYDRQECVATEENPQVYFCCCEGNFCNERFTHLPEPGGPEVTYEPPPTAPTLLT
notes: mouse is recalled from the PDB entry 2H62 and should be checked there; also called activin type IIB receptor ectodomain; source: E. coli OrigamiB (DE3), purified (Ni2+-IMAC, thrombin cleavage, anion exchange, reversed phase HPLC)
B2: ActR-IIBECD Q80A (receptor, UniProt P27040 19-137, looked up)
chain: B1 chain with Q80A
notes: source: E. coli OrigamiB (DE3), purified (Ni2+-IMAC, thrombin cleavage, anion exchange, RP-HPLC)
B3: ActR-IIBECD K37A (receptor, UniProt P27040 19-137, looked up)
chain: B1 chain with K37A
notes: as for B2
B4: ActR-IIBECD L61P (receptor, UniProt P27040 19-137, looked up)
chain: B1 chain with L61P
notes: also called ActR-IIBL61P; source: E. coli OrigamiB (DE3), purified (Ni2+-IMAC, thrombin cleavage, anion exchange, RP-HPLC)
B5: ActR-IIBECD L61A (receptor, UniProt P27040 19-137, looked up)
chain: B1 chain with L61A
notes: also called ActR-IIBL61A; source: E. coli OrigamiB (DE3), purified (Ni2+-IMAC, thrombin cleavage, anion exchange, RP-HPLC)
B6: ActR-IIBECD K56A (receptor, UniProt P27040 19-137, looked up)
chain: B1 chain with K56A
notes: as for B2
B7: ActR-IIBECD Y42A (receptor, UniProt P27040 19-137, looked up)
chain: B1 chain with Y42A
notes: as for B2
B8: ActR-IIBECD R46A (receptor, UniProt P27040 19-137, looked up)
chain: B1 chain with R46A
notes: as for B2
B9: ActR-IIBECD E34A (receptor, UniProt P27040 19-137, looked up)
chain: B1 chain with E34A
notes: as for B2
B10: ActR-IIBECD D63A (receptor, UniProt P27040 19-137, looked up)
chain: B1 chain with D63A
notes: as for B2
B11: BMPR-II receptor ectodomain (receptor, UniProt Q13873 27-150, looked up)
chain: SQNQERLCAFKDPYQQDLGIGESRISHENGTILCSKGSTCYGLWEKSKGDINLVKQGCWSHIGDPQECHYEECVVTTTPPSIQNGTYRFCCCSTDLCNVNFTENFPPPDTTPLSPPHSFNRDET
notes: BMP type II receptor (BMPR-II), extracellular domain; also called BMPR-IIECD; source: expressed and purified as described earlier [28]
B12: BMP-7 (CHO cells, R&D Systems) (ligand, UniProt P18075 293-431, looked up)
chain: STGSKQRSQNRSKTPKNQEALRMANVAENSSSDQRQACKKHELYVSFRDLGWQDWIIAPEGYAAYYCEGECAFPLNSYMNATNHAIVQTLVHFINPETVPKPCCAPTQLNAISVLYFDDSSNVILKKYRNMVVRACGCH
modifications: biotin (biotinylated for the biosensor; site not stated)
notes: bone morphogenetic protein 7 (BMP-7), mature ligand; source: bought: R&D Systems (CHO cells)

How the values were obtained:
Conditions in all cases: both partners purified
[1] = molecular target: T2, wildtype BMP-2 (bone morphogenetic protein 2), E. coli derived (UniProt P12643 283-396); assay: SEC; ternary complex of wildtype BMP-2 as isolated from gelfiltration (HBS700 buffer); its composition by reversed phase HPLC, peak areas divided by the extinction coefficients
T2 construct: dimeric ligand; also called wtBMP-2; BMP-2 dimer

[2] = molecular target: T3, binary complex BMP-2:BMPR-IAECD (purified) (UniProt P12643 283-396; P36894 24-152); assay: ITC; VP-ITC, 298 K (25 C), HBS500 buffer (10 mM HEPES, 500 mM NaCl, pH 7.4); 150 uM ActR-IIBECD in the syringe, 7.5 uM binary complex BMP-2:BMPR-IAECD in the cell; one-site-binding model
T3 construct: as the chain of Dm1; as the chain of Dm2; Complex formed beforehand and placed in the calorimeter cell at 7.5 uM; also called BMP-2:BMPR-IAECD complex; binary complex of BMP-2 and BMPR-IAECD; copies: 2 + 2

[3] = molecular target: T2, wildtype BMP-2 (bone morphogenetic …); assay: SEC; ternary complex of wildtype BMP-2 as isolated from gelfiltration (HBS700 buffer); its composition by analytical SDS-PAGE, band intensities compared with standard mixtures of defined molar ratios
[4] = molecular target: T4, binary complex of BMP-2 bound to immobilized BMPR-IAECD (formed on the biosensor) (UniProt P12643 283-396; P36894 24-152); assay: SPR; BMPR-IAECD immobilised; perfusion with 200 nM BMP-2 for 300 s to form the binary complex, then ActR-IIBECD as analyte at 1 to 50 uM for 120 s; apparent KD from the dose dependence of equilibrium binding, Scatchard analysis
T4 construct: as the chain of Dm4; as the chain of Dm2; also called BMP-2 in complex with immobilized BMPR-IAECD; binary BMP-2:BMPR-IAECD complex; source: formed on the biosensor by perfusion of immobilized BMPR-IAECD with 200nM BMP-2; copies: 2 +

[5] = molecular target: T5, glycosylated BMP-2 expressed in CHO cells (UniProt P12643 283-396, glycosylated; biotin (biotinylated for the biosensor; site not stated)); assay: SPR; BIACORE 2000; biotinylated ligand on a streptavidin-modified CM5 chip (about 200 RU); receptor ectodomain as analyte at 1, 2, 3, 5, 10, 20 and 50 uM; HBS500 (10 mM HEPES pH 7.4, 500 mM NaCl, 3.4 mM EDTA, 0.005% P20); apparent KD from the dose dependence of equilibrium binding
T5 construct: bone morphogenetic protein 2 (BMP-2), mature ligand; also called BMP-2 (CHO cells, R&D Systems); source: bought: R&D Systems (CHO cells)

[6] = molecular target: B12; assay: as above
activin A (Sf9 cells) = molecular target: T1, activin A (Sf9 cells); assay: as above
[7] = molecular target: B12; assay: as above; remark: listed apart in the source
[8] = molecular target: T6, ActR-II receptor ectodomain (UniProt P27037 20-135); assay: as above
T6 construct: activin receptor type II (ActR-II), extracellular domain; also called ActR-IIECD; source: expressed and purified as described earlier [28]

| rel. KD (against wildtype ActR-IIBECD on the same ligand) [5] [fold] | rel. KD (against wildtype ActR-IIBECD on the same ligand) [6] [fold] | rel. KD (against wildtype ActR-IIBECD on the same ligand) (activin A (Sf9 cells)) [fold] | Binder | other results |
| --- | --- | --- | --- | --- |
| – | – | – | B1 | stoichiometry N [1]: 1.97 ActR-IIBECD per 0.98 BMP-2 dimer; stoichiometry N [2]: 2; stoichiometry N [3]: 2.1 ActR-IIBECD per BMP-2 dimer; Kd [4]: 9 µM |
| 1.3 | 1 | 1.1 | B2 | – |
| 6.1 | 0.3 | 0.7 | B3 | – |
| 7.9 | 19 | 2510 | B4 | – |
| 6.4 | 6.4 | 24 | B5 | – |
| 11 | 14 | 2.7 | B6 | – |
| 61 | 49 | 290 | B7 | – |
| 8.4 | 3.3 | 2.9 | B8 | – |
| 1 | 1.8 | 1 | B9 | – |
| 9.6 | 6.7 | 8.6 | B10 | – |
| – | – | – | B11 | Kd [7]: 32 µM |
| – | – | – | B12 | Kd [8]: 0.43 µM |
